132 substances from patent publication US20250011363A1, “OPTIMIZED SHORTENED PEPTIDE THAT BINDS TO ACETYLCHOLINE RECEPTOR, AND USE THEREOF” (SKINMED CO., LTD., priority 2021, published 2025) can be followed below.

The experiment addresses acetylcholine receptor (Homo sapiens, UniProt P02708). Put plainly: SPR binding affinity (RU) of optimized 5mer/6mer/7mer peptides, Examples 6-7. Conditions: SPR, peptides tested at 10 μM; 6mer-1 Top sequence. In a few lines:
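Peptides were tested at 10 μM by surface plasmon resonance against the receptor, with binding reported as response units. Library sequences were built from frequent (top) or infrequent (bottom) amino acid combinations in 5mer, 6mer-1 and 6mer-2 series.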

Sequence of acetylcholine receptor (P02708 21-457): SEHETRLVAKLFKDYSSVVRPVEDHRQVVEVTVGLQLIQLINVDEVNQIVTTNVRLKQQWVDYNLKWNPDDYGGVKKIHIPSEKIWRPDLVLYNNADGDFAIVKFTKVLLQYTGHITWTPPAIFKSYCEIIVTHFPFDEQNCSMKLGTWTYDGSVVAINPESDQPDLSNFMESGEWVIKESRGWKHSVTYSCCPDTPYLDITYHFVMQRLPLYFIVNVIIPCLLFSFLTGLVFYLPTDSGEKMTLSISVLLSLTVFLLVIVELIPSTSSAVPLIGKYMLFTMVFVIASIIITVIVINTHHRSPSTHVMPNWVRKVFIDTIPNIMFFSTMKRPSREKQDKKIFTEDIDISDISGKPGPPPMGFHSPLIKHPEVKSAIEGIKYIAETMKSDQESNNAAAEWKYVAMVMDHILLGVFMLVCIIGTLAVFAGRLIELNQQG

In the case of 6mer-1-426 (KKGQYR), the Binding affinity came out at 131 Ru.

Take 6mer-1-427 (KRWVLR): the Binding affinity turned out to be 147 Ru.

Regarding 6mer-1-428 (KRVVLR), the Binding affinity came to 139 Ru.

For 6mer-1-429 (RRQRRK), the Binding affinity is listed as 135 Ru.

As for 6mer-1-430 (KKQLQK), the Binding affinity came to 144 Ru.

In the case of 6mer-1-431 (RRRFRR), the Binding affinity is given as 144 Ru.

As to 6mer-1-432 (RKGIQK), the Binding affinity stood at 139 Ru.

On to 6mer-1-433 (RKQQYR), for which the Binding affinity is recorded as 154 Ru.

6mer-1-434 (KRWVCR): the Binding affinity is listed as 137 Ru.

For 6mer-1-435 (RKWRCK), the Binding affinity is on record as 135 Ru.

As to 6mer-1-436 (KKLFYK), the Binding affinity is listed as 148 Ru.

As to 6mer-1-437 (RKWFLK), the Binding affinity amounted to 131 Ru.

6mer-1-438 (RRGFQK): the Binding affinity was found to be 142 Ru.

Regarding 6mer-1-439 (KRRQTK), the Binding affinity turned out to be 121 Ru.

For 6mer-1-440 (KRVYSK), the Binding affinity was 153 Ru.

With 6mer-1-441 (RRVYYR), the Binding affinity was 146 Ru.

On to 6mer-1-442 (RKLQYK), for which the Binding affinity was found to be 131 Ru.

Consider 6mer-1-443 (RKVLLK), for which the Binding affinity was found to be 145 Ru.

Turning to 6mer-1-444 (KKWILK), the Binding affinity was 144 Ru.

In the case of 6mer-1-445 (KRVRLR), the Binding affinity is given as 145 Ru.

In the case of 6mer-1-446 (RRVIRR), the Binding affinity stood at 124 Ru.

For the substance 6mer-1-447 (RRRQQK), the Binding affinity stood at 146 Ru.

With 6mer-1-448 (RKRFSR), the Binding affinity worked out at 141 Ru.

6mer-1-449 (KRGRCK): the Binding affinity was found to be 135 Ru.

Take 6mer-1-450 (RKVVYK): the Binding affinity is given as 151 Ru.

In the case of 6mer-1-451 (RKVRLR), the Binding affinity is given as 153 Ru.

Turning to 6mer-1-452 (KRLYTR), the Binding affinity was found to be 141 Ru.

With 6mer-1-453 (KKWQQK), the Binding affinity worked out at 154 Ru.

With 6mer-1-454 (RKVLRR), the Binding affinity was found to be 124 Ru.

With 6mer-1-455 (RRVFYK), the Binding affinity came to 126 Ru.

On to 6mer-1-456 (RRGQYR), for which the Binding affinity came to 153 Ru.

6mer-1-457 (RKLLCR): the Binding affinity is 121 Ru.

6mer-1-459 (RRWVYK): the Binding affinity was 131 Ru.

Regarding 6mer-1-460 (RRGFYR), the Binding affinity is listed as 148 Ru.

Turning to 6mer-1-461 (RRGYTR), the Binding affinity worked out at 142 Ru.

For the substance 6mer-1-462 (RKQILK), the Binding affinity turned out to be 126 Ru.

6mer-1-463 (KRSFRK): the Binding affinity is 153 Ru.

Regarding 6mer-1-464 (RRQRLK), the Binding affinity was found to be 131 Ru.

In the case of 6mer-1-465 (RKQVYK), the Binding affinity is 154 Ru.

Turning to 6mer-1-466 (KRSICR), the Binding affinity is reported as 148 Ru.

For 6mer-1-467 (KRGYQK), the Binding affinity came out at 121 Ru.

On to 6mer-1-468 (RRLYRR), for which the Binding affinity stood at 153 Ru.

Take 6mer-1-469 (KKLIYR): the Binding affinity turned out to be 139 Ru.

Turning to 6mer-1-470 (KKWVYR), the Binding affinity worked out at 148 Ru.

Take 6mer-1-471 (KKWRCK): the Binding affinity worked out at 123 Ru.

For the substance 6mer-1-472 (KRQRCK), the Binding affinity is listed as 142 Ru.

Consider 6mer-1-473 (KKVLSK), for which the Binding affinity is reported as 154 Ru.

Consider 6mer-1-474 (KRLFSK), for which the Binding affinity was found to be 121 Ru.

For the substance 6mer-1-475 (RKLQTK), the Binding affinity is reported as 148 Ru.

Turning to 6mer-1-476 (KRRRQK), the Binding affinity came to 154 Ru.

In the case of 6mer-1-477 (KRQQTK), the Binding affinity is on record as 145 Ru.

As to 6mer-1-478 (RKVRYK), the Binding affinity worked out at 139 Ru.

As for 6mer-1-479 (RRSLTR), the Binding affinity is on record as 135 Ru.

Regarding 6mer-1-480 (KKQFYK), the Binding affinity was 121 Ru.

As to 6mer-1-481 (KRWRCK), the Binding affinity is 133 Ru.

6mer-1-482 (RKQVRK): the Binding affinity stood at 133 Ru.

With 6mer-1-483 (KRQVTK), the Binding affinity worked out at 151 Ru.

Take 6mer-1-484 (KKLYLR): the Binding affinity stood at 154 Ru.

Regarding 6mer-1-485 (RRWYRR), the Binding affinity is given as 126 Ru.

For the substance 6mer-1-486 (KRQVRK), the Binding affinity is on record as 151 Ru.

In the case of 6mer-1-487 (RKGRRK), the Binding affinity was 121 Ru.

As to 6mer-1-488 (KKWYSK), the Binding affinity turned out to be 135 Ru.

6mer-1-489 (KKVITK): the Binding affinity came out at 148 Ru.

6mer-1-490 (KKLFRR): the Binding affinity stood at 133 Ru.

As for 6mer-1-491 (RKLRLR), the Binding affinity worked out at 137 Ru.

For 6mer-1-492 (RRWRQK), the Binding affinity was 139 Ru.

6mer-1-493 (KRGYLR): the Binding affinity was found to be 131 Ru.

With 6mer-1-494 (KKLFSR), the Binding affinity is 128 Ru.

With 6mer-1-495 (RKGFQR), the Binding affinity is on record as 126 Ru.

On to 6mer-1-496 (RRVYQR), for which the Binding affinity turned out to be 148 Ru.

On to 6mer-1-497 (KRRQLR), for which the Binding affinity is 133 Ru.

Consider 6mer-1-498 (RKRQQK), for which the Binding affinity turned out to be 139 Ru.

In the case of 6mer-1-499 (RKLFYR), the Binding affinity was found to be 149 Ru.

6mer-1-500 (RKLQSK): the Binding affinity worked out at 151 Ru.

On to 6mer-1-501 (KRVLYK), for which the Binding affinity was found to be 154 Ru.

Regarding 6mer-1-502 (RKLFSR), the Binding affinity was determined as 146 Ru.

As for 6mer-1-503 (KRRLCK), the Binding affinity came out at 151 Ru.

With 6mer-1-504 (RRSITR), the Binding affinity came out at 122 Ru.

For 6mer-1-505 (RRRFTR), the Binding affinity is recorded as 148 Ru.

Consider 6mer-1-506 (RRRLSK), for which the Binding affinity is listed as 151 Ru.

As to 6mer-1-507 (RRSQSK), the Binding affinity is listed as 139 Ru.

6mer-1-508 (RRQFSK): the Binding affinity was 135 Ru.

On to 6mer-1-509 (RKWLRK), for which the Binding affinity amounted to 128 Ru.

For 6mer-1-510 (KRRQSR), the Binding affinity worked out at 122 Ru.

For the substance 6mer-1-511 (RKVYRR), the Binding affinity is reported as 136 Ru.

Regarding 6mer-1-512 (RKWICK), the Binding affinity turned out to be 154 Ru.

Consider 6mer-1-513 (RKQIRR), for which the Binding affinity worked out at 154 Ru.

Regarding 6mer-1-514 (KKGRSK), the Binding affinity is 128 Ru.

6mer-1-515 (RRGLSR): the Binding affinity was found to be 139 Ru.

On to 6mer-1-516 (KKRFSR), for which the Binding affinity amounted to 139 Ru.

In the case of 6mer-1-517 (KKGLCK), the Binding affinity worked out at 139 Ru.

In the case of 6mer-1-518 (KRWVLK), the Binding affinity was found to be 153 Ru.

As to 6mer-1-519 (KRRQCK), the Binding affinity stood at 147 Ru.

In the case of 6mer-1-520 (KRQIYK), the Binding affinity is recorded as 127 Ru.

On to 6mer-1-521 (RKVISR), for which the Binding affinity was found to be 128 Ru.

In the case of 6mer-1-522 (RKRRLR), the Binding affinity worked out at 126 Ru.

Turning to 6mer-1-523 (KRRRSK), the Binding affinity worked out at 139 Ru.

With 6mer-1-524 (KKGRQK), the Binding affinity came to 148 Ru.

On to 6mer-1-525 (RRQLRR), for which the Binding affinity amounted to 139 Ru.

For the substance 6mer-1-526 (KRGYTR), the Binding affinity was 148 Ru.

Consider 6mer-1-527 (KKGIYR), for which the Binding affinity came to 142 Ru.

Turning to 6mer-1-528 (KRSYTR), the Binding affinity came out at 139 Ru.

For 6mer-1-529 (RRSLCK), the Binding affinity was found to be 139 Ru.

6mer-1-530 (KRLVSK): the Binding affinity is reported as 137 Ru.

As to 6mer-1-531 (RKGQTK), the Binding affinity is on record as 135 Ru.

On to 6mer-1-532 (KKSQLR), for which the Binding affinity stood at 121 Ru.

As to 6mer-1-533 (RKWFSR), the Binding affinity amounted to 145 Ru.

Turning to 6mer-1-534 (KKRLCR), the Binding affinity came to 126 Ru.

6mer-1-535 (RRVILK): the Binding affinity was 139 Ru.

For 6mer-1-536 (RRWFRK), the Binding affinity was 151 Ru.

For the substance 6mer-1-537 (RRGLCK), the Binding affinity was 154 Ru.

Regarding 6mer-1-538 (RRSQCK), the Binding affinity is 142 Ru.

For the substance 6mer-1-539 (KRGIRK), the Binding affinity is listed as 148 Ru.

6mer-1-540 (KRVQTR): the Binding affinity was 128 Ru.

With 6mer-1-541 (RKWFTR), the Binding affinity came to 136 Ru.

Regarding 6mer-1-542 (KRWFRR), the Binding affinity was determined as 128 Ru.

In the case of 6mer-1-543 (RRSVCK), the Binding affinity came out at 145 Ru.

Take 6mer-1-544 (KRVICR): the Binding affinity turned out to be 149 Ru.

As for 6mer-1-545 (RRSYRK), the Binding affinity was determined as 127 Ru.

Turning to 6mer-1-546 (RKLVQR), the Binding affinity is 123 Ru.

6mer-1-547 (RKVQQR): the Binding affinity is given as 148 Ru.

With 6mer-1-548 (RRVYSR), the Binding affinity is 123 Ru.

For 6mer-1-549 (KKSYQR), the Binding affinity is 142 Ru.

On to 6mer-1-550 (RRLICR), for which the Binding affinity was determined as 148 Ru.

Consider 6mer-1-551 (KRGRLR), for which the Binding affinity is reported as 142 Ru.

6mer-1-552 (RKRYRK): the Binding affinity worked out at 144 Ru.

For the substance 6mer-1-553 (RRGVRK), the Binding affinity came out at 128 Ru.

Consider 6mer-1-554 (KRSVTR), for which the Binding affinity was 131 Ru.

Turning to 6mer-1-555 (KKWYLK), the Binding affinity amounted to 128 Ru.

In the case of 6mer-1-556 (KKGFTK), the Binding affinity was 145 Ru.

With 6mer-1-557 (KRQVQK), the Binding affinity turned out to be 128 Ru.

Consider 6mer-1-558 (RRLIQR), for which the Binding affinity was 139 Ru.
